Consider 3 molecules from US20090130133A1 (VAXON BIOTECH, published 2009).

For assay [1], the target named is T1, HLA-A*0201 (human).
T1 construct: whole, on cells; MHC class I molecule on T2 cells; also called HLA-A2
Nature of the assay: T2 cell HLA-A*0201 stabilisation, flow cytometry with mAb BB7.2; peptide concentration / reference peptide concentration giving 20% HLA-A*0201 expression. How it is done: (§1) The protocol used to measure relative affinity (RA) is described in detail elsewhere (Tourdot et al., 2000). […] The cells were then treated with Brefeldin A for 1 h, washed, incubated at 37° C. for 0, 2, 4 and 6 hours, and labeled with mAb BB7.2.
Background: Flow cytometry measures light scatter and fluorescence of single cells or particles in a stream.

For assay [2], the target named is T1, HLA-A*0201. The experiment in a line: T2 cells loaded with 100 µM peptide, Brefeldin A, decay of HLA-A*0201 labelling (mAb BB7.2) over 0-6 h. How it is done: as §1

B1: MAGE-A248V9 (peptide)
peptide: YLEYRQVPV
notes: also called optimized variant of MAGE-A248D9/G9
Take B1: the “RA (relative affinity)” value with HLA-A*0201 [1] was 1.8 ratio to reference peptide HIVpol589 (reference = 1). For the same molecule, in the assay with HLA-A*0201 [2], the “DC50 (half-life of the HLA/peptide complex)” value amounted to 4 h.

B2: TERT988Y (peptide)
peptide: YLQVNSLQTV
notes: also called optimized variant of the cryptic peptide TERT988
Regarding B2, the “RA (relative affinity)” value in the assay with HLA-A*0201 [1] is 2.1 ratio to reference peptide HIVpol589 (reference = 1). Besides, in the assay with HLA-A*0201 [2], the “DC50 (half-life of the HLA/peptide complex)” value was greater than 6 h.

B3: HER-2/neu402Y (peptide)
peptide: YLEEITGYL
notes: also called optimized variant of the cryptic peptide HER-2/neu402
For B3, in the assay with HLA-A*0201 [1], the “RA (relative affinity)” value is 3.6 ratio to reference peptide HIVpol589 (reference = 1). Also, in the assay with HLA-A*0201 [2], the “DC50 (half-life of the HLA/peptide complex)” value is 4 h.
